Laboratory results reported in article PMC10858199, “Amyloid-β aggregates activate peripheral monocytes in mild cognitive impairment” (Nature Communications, 2024).

Legend:
[1] = biological target: in vitro-aggregated amyloid-β (A-Aβ) (human) (UniProt P05067); assay: SPR; BIAcore 3000, CM-4 chips; monomeric Aβ, aggregated Aβ (100 fmol Aβ42/mm^2) or iC3b amine-coupled; I domains injected at 20-10000 nM in 150 mM NaCl, 1 mM MgCl2, 5.0 mM HEPES (pH 7.4); contact 180 s, dissociation 400 s; two-dimensional distribution of 1:1 interactions fitted with EVILFIT
[2] = biological target: synthetic, predominantly monomeric amyloid-β (M-Aβ) (human) (UniProt P05067); assay: as above

Substance | KD, high-affinity class of binding sites [1] | koff, high-affinity class of binding sites [1] | koff, moderate-affinity class of binding sites [1] | Kd [2]
CR4 I domain, stabilized in the activated conformation (from UniProt P20702 20-1101) (domain or fragment) | 16 pM | 0.00025 s⁻¹ | 5e-05 s⁻¹ | 
CR3 I domain, stabilized in the activated conformation (domain or fragment) |  |  |  | 79 µM
